Drawing on patent publication US20220251233A1 (VERSEAU THERAPEUTICS, published 2022), this text covers EC50 for 21 molecules.

Substitutions are numbered along the chain they refer to.

Sequences and labels used below:
T1: Human CD53-CHO (full-length human CD53 over-expressed on CHO-K1 cells) (human, UniProt P19397 1-219)
T1 construct: Tetraspanin cell-surface antigen
T1 sequence: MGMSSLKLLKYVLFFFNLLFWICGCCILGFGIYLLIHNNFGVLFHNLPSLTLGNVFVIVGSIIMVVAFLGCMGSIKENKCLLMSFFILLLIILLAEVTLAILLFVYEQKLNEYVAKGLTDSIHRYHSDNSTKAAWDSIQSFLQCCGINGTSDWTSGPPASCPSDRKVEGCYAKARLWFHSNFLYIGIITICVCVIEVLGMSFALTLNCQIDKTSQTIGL

B1: 4B19 (antibody, V domains shown)
VH: QVQLQQSGTELMKPGASVKLSCKATGYTFTGYWIEWVKQRPGHGLEWIGEILPGSYSTNYNEKFKGKATFTADSSSNTAYMQLSSLTTEDSAIYYCTRDSNYEWFDVWGTGTTVTVSS
VL: DVVMTQTPLSLSVTIGQPASISCKSSQSLLHRDGETYLNWLLQRPGQSPKLLIYLVSKLESGIPDRFSGSGSGTDFTLKISRVEVEDLGVYYCLQHTHFPYTFGSGTKLEIK
notes: Murine anti-human CD53 mAb purified from subcloned hybridoma; detected with anti-mouse IgG
B2: 10J06 (antibody, V domains shown)
VH: QVQLQQPGAELVKPGASVKLSCKASGYTFTSYWMHWVKQRPGQGLEWIGMIHPNSGSSNHNGKFRGKATLTVDKSSSTAYIQLSSLTSEDSAVYYCARDDYAETMDYWGQGTSVTVSS
VL: DVVMTQTPLSLSITIGQPASISCKSSQSLLYSDGKTYLNWFQQRPGQSPKRLMYQVSKLDPGIPDRFSGSGSETDFTLKISRVEAEDLGVYYCLQGTYYPWTFGGGTKLEIK
notes: as for B1
B3: 9J08 (antibody, V domains shown)
VH: QVQLQQPGAELVKPGASVKLSCKASGYTFTSCWMHWVKQRPGQGLEWIGMIHPNGYSSNYNGKFKNKATLTIDNSSGTAYMQLSGLTSEDSAVYYCARDDYAETMDYWGQGTSVTVSS
VL: B2 VL with I13V, F41L, K79R
notes: as for B1
B4: 10N22 (antibody, V domains shown)
VH: EVQLQQSGPELVKPGASVKISCKASGYTFTGYFMNWVKQSHGKSLEWIGDLNPNNGGTNFNQRFKGKATLTVDKSSSTAYMELRSLTSEDSAVYYCARDGYDGGYAMDYWGQGTSVTVSS
VL: DVLMTQTPLSLPVSLGDQASISCRSSQNIVHSSGNTYLEWYLQKPGQSPKLLIFKVSNRFSGVPDRFSGSGSGTDFTLKISRVEAEDLGVYYCFQGSHVPYTFGGGTKLEIK
notes: as for B1
B5: 5G03 (antibody, V domains shown)
VH: EVQLQQSGAELVRPGASVKLSCTASGFNIKDDFMHWVRQRPDQGLEYIGRFDPAIGNAKYAPKFQDKATLTADTSSNTAYLHLSSLTSEDTAVYYCAIFYAYWGQGTLVTVSA
VL: DVVMTQTPLSLPVSLGDQASISCRSSQSLVHSNRNTYLHWYLQKPGQSPKLLIYKVSNRFSGVPDRFSGSGSGTDFTLKISRVEAEDLGVYFCSQSTHVPFTFGSGTKLEIK
notes: as for B1
B6: 6J17 (antibody, V domains shown)
VH: EVQLQQSGAELVRPGASVKLSCTASGFNIKDDYMHWVRQRPKQGLEWIGRVDPANGNTKYAPKFQDKATMTADTSSNTAYLRLSSLTSEDTAVYYCAGYFYYSHDGGFACWGQGTLVTVSA
VL: DIVMTQGSPSIPVTPGESVSISCRSSKSLLHRNGNIYLYWFLQRPGQSPQRLIYYMSNLASGVPDRFSGRGSGTDFTLRISRVEAEDVGVYYCMQGLEYPFTFGTGTKLEIK
notes: as for B1
B7: 4N19 (antibody, V domains shown)
VH: EVQLQQSVAELVRPGASVKLSCTASGFSIKNTYMHWVKQRPEQGLEWIGRIDPANGYTQHAPKFQGKATIITDTSSNTAYLQLSSLTSEDTAIYYCAGGGPYYAMDYWGQGTSVTVSS
VL: DIVMTQAAPSVPVTPGESVSISCRSSKSLLHSNGDTYLYWFLQRPGQSPQLLIYRMSNLASGVPDRFSGSGSGTAFTLRISRVEAEDVGVYYCMQHLEYPFTFGAGTKLELK
notes: as for B1
B8: 6K14 (antibody, V domains shown)
VH: EVQLQQSGADLVRPGASVKLSCTASGFNIKDDYIHWVKQRPVQGLEWIGRIDPANGNTKYAPMFRGKATITADTSSNTAYLQLSSLTSEDTAVYYCARSGTGAMDYWGQGTSVTVSS
VL: B7 VL with P12F, L38F, G73T, Y99F, F101L
notes: as for B1
B9: 2M22 (antibody, V domains shown)
VH: EGQLQQSGSELVRPGASVKLSCTASGFNIKDDYVHWVKKRPEQGLEWIGRIDPANGYSHYVPKFHDKATITADTSSNTAYLQLNSLTSDDTAVYYCASGSGSYAMDYWGQGTSVTVSS
VL: B7 VL with D1E, L59V, A85T, Y99S, F101Y, A105G, L111I
notes: as for B1
B10: 5K03 (antibody, V domains shown)
VH: EVQLQQSVAELVRPGASVKLSCTTSGFNIKNTYMHWVKQRPEQGLEWIGRIDPANGYTECAPKFQGKATITADTSSNTAYLQLSSLTSEDTAIYYCTRSGEDYAMDYWGQGTSVTVSS
VL: B7 VL with T14I, S26R, S32R, L51V, F101Y, A105G, L111I
notes: as for B1
B11: 5F16 (antibody, V domains shown)
VH: B8 VH with D10E, K30E, I34V, V42E, T58I, M63K, R65Q, G66D, T78I, S88A
VL: B7 VL with L38F, Y99F, F101L, A105V
notes: as for B1
B12: 2M05 (antibody, V domains shown)
VH: EVQLQQSVAELVRPGASVKLSCTTSGFNIKDTYMHWVKQRPEQGLEWIGRIDPANGHTKYAPKFQDKATIAADTSSNTAYLQLSSLTSEDTAIYYCACGWDAAFAFWGQGTLVTVSA
VL: B7 VL with S26G, V90I, M94L, Y99F, F101L
notes: as for B1
B13: 10F09 (antibody, V domains shown)
VH: EVQLQQSVAELVRPGASVKLSCTASGFNIKNTYMHWVKQRPAQGLEWIGKIDPANGFTKHAPRFQGKATITSDTSSNTAYLQLSSLTSEDTAIYYCASGWDAAFAYWGQGTLVTVSA
VL: B7 VL with N58K, Y99H, F101L
notes: as for B1
B14: 10H16 (antibody, V domains shown)
VH: EVQLQQSGAELVRPGASVKLSCTVSGFNIKDDFMNWVRQRPEQGLEWIGRIDPENGNTKYAPKFQDKATITADTSSNTAHLHLSSLTSEDTAVYFCARWIPPYWGQGTLVTVSA
VL: B7 VL with P12H, V19A, V63A, H96L, F101Y, A105G, L111I
notes: as for B1
B15: 5M13 (antibody, V domains shown)
VH: EVQLQQSVAELVRPGASVKLSCTASGFNIKNTYMHWVKQRPEQGLEWIGRLDPANGYTQSAPKFQGKATVTADTSSNTAYLHLSSLTSEDTAIYYCLYGNYYYAMAYWGQGTSVTVSS
VL: B7 VL with I2V, V11I, F101Y, A105G, L111I
notes: as for B1
B16: 6M01 (antibody, V domains shown)
VH: EVLLQQSVADLVRPGASVKLSCTASGFNIKNTYMHWVSQRPEQGLEWIGRIDPANGYTQCAPSFQGKATITADTSSNTAYLHLSSLSSEDPAIYYCAGGSYYSAMDYWGQGTSVTVSS
VL: B7 VL with V11L, A105S, L111I
notes: as for B1
B17: 4O24 (antibody, V domains shown)
VH: B13 VH with G26A, F57Y, H60Y, G66D, S72A, W100R, L112Q
VL: B7 VL with Y99H, F101L
notes: as for B1
B18: 1L17 (antibody, V domains shown)
VH: B7 VH with S28N, G49A, T58S, H60Y, I71T, T72A, Y94F, G100S, P101T, Y103S
VL: B7 VL with A105G, L111I
notes: as for B1
B19: 3A21 (antibody, V domains shown)
VH: EVQLQQSGAELVRPGASVKLSCTASGFNIKDDYMHWVKQRPEQGLEWIGLIDPENGYAEYASKFQGKATITADTSSNTANLQLNSLTSEDTAVYYCTTWGLLRNYVMDYWGQGTSVTVSS
VL: DIVMTQAAFSNPVTLGTSASISCSSSKSLLHSNGITYLYWYLQRPGQSPQLLIYRMSNLASGVPDRFSGSGSGTDFTLRVNRVEADDVGVYYCAQMLERPRTFGGGTKLEIK
notes: as for B1
B20: 10B08 (antibody, V domains shown)
VH: QLQQSGTELVRPGASVKLSCTSSGFNIKDDFMHWVKQRPEQGLEWIGWIDPENGATAYASKFQGKATITADTSSNTAYLQLSSLTSEDTAVYYCTTFGDYYGGRKDYWGQGTTLTVSS
VL: B19 VL with R79G, V80I, N81S, D86E
notes: as for B1
B21: 9E17 (antibody, V domains shown)
VH: QLQQSGAEFVRPGASVKLSCTASGFNIKDDYIHWVKQRPEQGLEWIGRIDPANGYTEYAPKFQGKATITSDTSSNTAYLQLSSLTSEDTAVFYCVWHWDYWGQGTTLTVSS
VL: B19 VL with S26Y, L30Q, S32N, Y41F, Q50H, V80I, N81S, D86E, R101F, G105T
notes: as for B1

In the assay the target is T1, Human CD53-CHO (full-length human CD53 …). Description: flow cytometry on CD53-CHO cells, anti-mouse IgG AF647 gMFI, 4-parameter fit. Here is the method: Binding of anti-human CD53 antibodies was determined by flow cytometry for their ability to bind human CD53-CHO cells compared to parental CHO-K1 cells. All assay steps were performed in FACS buffer (phosphate buffered saline pH 7.4 supplemented with 2% fetal bovine serum). Twenty thousand cells were seeded in 384-well plates and washed twice with ice cold buffer. Cells were incubated with purified antibodies titrated 3-fold from 200 nM to 0.09 nM at 4° C. for 1 hour with gentle agitation, then washed twice with FACS buffer and incubated with anti-mouse IgG Alexa Fluor® 647 and incubated at 4° C. for 40 minutes. Cells were washed twice and resuspended in FACS buffer. Analysis was preformed on the IntelliCyt® iQue Screener and gMFI values for Alexa Fluor® 647 were generated. EC50 values were determined in GraphPad Prism8. Concentration was transformed from nM to Log 10 nM and curves were fit with a nonlinear regression of log(agonist) vs. response−Variable slope (four parameters) or Y=Bottom+(Top−Bottom)/(1+10\hat{ }((LogEC50−X)*HillSlope)). EC50 values for all anti-human CD53 antibodies can be found in Table 6, and representative binding curves can be found in FIG. 7. Binding to CD53-CHO is represented by closed symbols and binding to parental CHO-K1 cells is represented by open symbols.
As a reminder, the EC50 is the concentration that produces a half-maximal response. Read a high EC50 as lower potency in that assay. With B1, it took 36 nM to reach a half-maximal effect (EC50).
In turn, B2 showed an EC50 of 82.5 nM.
The figure for B3 is 2.7 nM; for B4 it is roughly 8 nM; for B5 it is 9.1 nM.
B6 returned an EC50 of roughly 23 nM.
The molecule B7 registered an EC50 of 2.5 nM.
With B8 the figure was roughly 3 nM; with B9, roughly 0.3 nM.
With B10 the figure was roughly 2 nM; with B11, roughly 3 nM.
In turn, B12 returned an EC50 of 4.6 nM.
With B13 the figure was 25.4 nM; with B14, roughly 8 nM; with B15, 11.1 nM.
For the molecule B16, the EC50 is roughly 2 nM.
With B17 the figure was 8.1 nM; with B18, roughly 2 nM; with B19, 2.1 nM.
As to B20, the response was half-maximal at 3.1 nM (EC50).
With B21 the figure was 2.1 nM.
